Where two headings read alike, the source gives them in different places.
B1: His8-TEV-GABARAP (1 to 117) (natural protein)
chain: MKFVYKEEHPFEKRRSEGEKIRKKYPDRVPVIVEKAPKARIGDLDKKKYLVPSDLTVGQFYFLIRKRIHLRAEDALFFFVNNVIPPTSATMGQLYQEHHEEDFFLYIAYSDESVYGL
B2: GST-PreScission-p62 FIR 4P (domain or fragment)
chain: MESDNCSGGDDDWTHLSSKEVDPETGELQSLQMPESEGPEELDPEQEGPTGLKEA

Experiments:
Assay in all cases: SPR
[1] = target: T1, Biotinylated FLCN-8xGlycine-AviTag/FNIP2 (human, UniProt Q8NFG4;Q9P278, biotin on the AviTag)
[2] = target: T1, Biotinylated FLCN-8xGlycine-AviTag/FNIP2; remark: listed apart in the source
[3] = target: B1
His8-TEV-LC3B (1 to 125) = His8-TEV-LC3B (1 to 125) (human, UniProt Q9GZQ8 1-120)

Binder | Kd [1] [nM] | Kd [2] [nM] | Kd [3] [nM] | Kd (His8-TEV-LC3B (1 to 125)) [nM]
B1 | 0.071 ± 0.01 | 0.3 ± 0.018 |  | 
B2 |  |  | 670 ± 80 | 820 ± 40
